Paper PMC6005164, “A novel thymidylate synthase from the Vibrionales, Alteromonadales, Aeromonadales, and Pasteurellales (VAAP) clade with altered nucleotide and folate binding sites” (PeerJ, 2018)

How the values were obtained:
VpTS = biological target: T1, VpTS (Vibrio parahaemolyticus, UniProt Q87SA0); experiment: spectrophotometric dihydrofolate formation at […] nm, dose-response fit; assay type: biochemical
T1 construct: gene thyA; full-length from codon-optimized synthetic gene in pJexpress414; E. coli BL21(DE3)-SI; 35,944 Da with tag; homodimer 70 kDa
T1 sequence (Q87SA0 1-283): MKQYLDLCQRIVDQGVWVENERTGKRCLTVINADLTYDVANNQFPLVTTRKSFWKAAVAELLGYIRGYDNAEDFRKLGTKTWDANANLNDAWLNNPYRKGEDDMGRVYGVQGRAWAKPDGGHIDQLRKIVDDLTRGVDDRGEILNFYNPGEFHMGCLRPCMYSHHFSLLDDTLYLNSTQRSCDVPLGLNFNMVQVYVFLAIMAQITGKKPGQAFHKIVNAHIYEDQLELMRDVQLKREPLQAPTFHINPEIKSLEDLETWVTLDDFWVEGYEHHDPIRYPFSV

purified protein [1] = substrate: O=c1ccn([C@H]2C[C@H](O)[C@@H](COP(=O)(O)O)O2)c(=O)[nH]1; experiment: purified protein; assay type: biochemical, Vibrio parahaemolyticus; settings: co-substrate mTHF, dUMP 0–150 µM, 50 mM Tris-HCl pH 7.5, 25 mM MgCl2, 5 mM DTT, 1 mM EDTA, 30 °C
purified protein [2] = substrate: Nc1nc2c(c(=O)[nH]1)N1CN(c3ccc(C(=O)N[C@@H](CCC(=O)O)C(=O)O)cc3)C[C@H]1CN2; experiment: purified protein; assay type: biochemical, Vibrio parahaemolyticus; settings: co-substrate dUMP, mTHF 0–300 µM, 50 mM Tris-HCl pH 7.5, 25 mM MgCl2, 5 mM DTT, 1 mM EDTA, 30 °C, varied: cofactor
[3] = biological target: the molecule itself; experiment: SEC; Superdex 75 10/300, 1 mL/min, Tris HCl 20 mM pH 7.5, NaCl 100 mM; native molecular weight from a Kav vs. log MW plot of standards

For `COc1cc(Cc2cnc(N)nc2N)cc(OC)c1OC` [trimethoprim], the IC50 (VpTS) was 106 ± 11.4 µM.

B1: VpTS (Vibrio parahaemolyticus RIMD 2210633) (protein)
chain: MKQYLDLCQRIVDQGVWVENERTGKRCLTVINADLTYDVANNQFPLVTTRKSFWKAAVAELLGYIRGYDNAEDFRKLGTKTWDANANLNDAWLNNPYRKGEDDMGRVYGVQGRAWAKPDGGHIDQLRKIVDDLTRGVDDRGEILNFYNPGEFHMGCLRPCMYSHHFSLLDDTLYLNSTQRSCDVPLGLNFNMVQVYVFLAIMAQITGKKPGQAFHKIVNAHIYEDQLELMRDVQLKREPLQAPTFHINPEIKSLEDLETWVTLDDFWVEGYEHHDPIRYPFSV
notes: full-length from codon-optimized synthetic gene in pJexpress414; E. coli BL21(DE3)-SI; 35,944 Da with tag; homodimer 70 kDa
With B1 the Km (purified protein [1]) was 27.3 ± 4.3 µM, the kcat (purified protein [1]) was 0.3 s⁻¹ and the Km (purified protein [2]) was 96.3 ± 18 µM. For the same molecule, the kcat (purified protein [2]) was 0.3 s⁻¹.

B2: recombinant thymidylate synthase from Vibrio parahaemolyticus FIM-S1708+ (enzyme, UniProt Q87SA0 1-283, looked up)
chain: MKQYLDLCQRIVDQGVWVENERTGKRCLTVINADLTYDVANNQFPLVTTRKSFWKAAVAELLGYIRGYDNAEDFRKLGTKTWDANANLNDAWLNNPYRKGEDDMGRVYGVQGRAWAKPDGGHIDQLRKIVDDLTRGVDDRGEILNFYNPGEFHMGCLRPCMYSHHFSLLDDTLYLNSTQRSCDVPLGLNFNMVQVYVFLAIMAQITGKKPGQAFHKIVNAHIYEDQLELMRDVQLKREPLQAPTFHINPEIKSLEDLETWVTLDDFWVEGYEHHDPIRYPFSV
notes: thymidylate synthase (folate-dependent, thyA) of Vibrio parahaemolyticus strain FIM-S1708+, GenBank WP_100088861.1; codon-optimized synthetic gene in pJexpress414; theoretical mass with tag 35,944 Da; the 35 kDa band is compared with the mass that includes the 10-His tag, so the tag was probably still on the protein in the size exclusion run; also called VpTS; TS
In the case of B2, the “stoichiometry N” value [3] is reported as 2.
